Source: US20220308072A1

Key:
[1] = target: Recombinant, his tagged full length human frataxin protein (Abcam ab95502) (human) (UniProt Q16595); experiment: Simoa sandwich 2-step (120 min-5 min); capture Ab-1; Diluent 1 + 10% NCS; frataxin 1000 pg/mL
[2] = target: Recombinant, his tagged full length human frataxin protein (Abcam ab95502) (human) (UniProt Q16595); experiment: Simoa sandwich 2-step; capture Ab-2; frataxin 6.17 pg/mL
[3] = target: Recombinant, his tagged full length human frataxin protein (Abcam ab95502) (human) (UniProt Q16595); experiment: Simoa sandwich 2-step (120 min-5 min); capture Ab-1; Diluent 1 + 5% NCS; frataxin 22.2 pg/mL
[4] = target: Recombinant, his tagged full length human frataxin protein (Abcam ab95502) (human) (UniProt Q16595); experiment: Simoa sandwich 3-step; capture Ab-1; frataxin 1000 pg/mL
[5] = target: Recombinant, his tagged full length human frataxin protein (Abcam ab95502) (human) (UniProt Q16595); experiment: Simoa sandwich 2-step; capture Ab-1; 50 pM SβG; frataxin 6.17 pg/mL
[6] = target: Recombinant, his tagged full length human frataxin protein (Abcam ab95502) (human) (UniProt Q16595); experiment: Simoa sandwich 3-step; capture Ab-1; frataxin 100 pg/mL
[7] = target: Recombinant, his tagged full length human frataxin protein (Abcam ab95502) (human) (UniProt Q16595); experiment: Simoa sandwich; capture Ab-1; no helper beads
[8] = target: Recombinant, his tagged full length human frataxin protein (Abcam ab95502) (human) (UniProt Q16595); experiment: Simoa sandwich 2-step (120 min-5 min); capture Ab-1; frataxin 2.74 pg/mL
[9] = target: Recombinant, his tagged full length human frataxin protein (Abcam ab95502) (human) (UniProt Q16595); experiment: Simoa sandwich 2-step (120 min-5 min); capture Ab-1; Diluent 1 + 5% NCS; frataxin 12.3 pg/mL
[10] = target: Recombinant, his tagged full length human frataxin protein (Abcam ab95502) (human) (UniProt Q16595); experiment: Simoa sandwich 3-step; capture Ab-3; frataxin 1000 pg/mL
[11] = target: Recombinant, his tagged full length human frataxin protein (Abcam ab95502) (human) (UniProt Q16595); experiment: Simoa sandwich 2-step (120 min-5 min); capture Ab-1; Diluent 1 + 5% NCS; frataxin 7.41 pg/mL
[12] = target: Recombinant, his tagged full length human frataxin protein (Abcam ab95502) (human) (UniProt Q16595); experiment: Simoa sandwich 2-step; capture Ab-1; frataxin 18.5 pg/mL
[13] = target: Recombinant, his tagged full length human frataxin protein (Abcam ab95502) (human) (UniProt Q16595); experiment: Simoa sandwich 2-step (120 min-5 min); capture Ab-1; Diluent 1 + 5% NCS; frataxin 66.7 pg/mL
[14] = target: Recombinant, his tagged full length human frataxin protein (Abcam ab95502) (human) (UniProt Q16595); experiment: Simoa sandwich 2-step; capture Ab-2; frataxin 100 pg/mL
[15] = target: Recombinant, his tagged full length human frataxin protein (Abcam ab95502) (human) (UniProt Q16595); experiment: Simoa sandwich 2-step; capture Ab-2; frataxin 1000 pg/mL
[16] = target: Recombinant, his tagged full length human frataxin protein (Abcam ab95502) (human) (UniProt Q16595); experiment: Simoa sandwich 2-step (120 min-5 min); capture Ab-1; Diluent 1 + 10% NCS

UniProt Q16595, sequence (Q16595 42-210): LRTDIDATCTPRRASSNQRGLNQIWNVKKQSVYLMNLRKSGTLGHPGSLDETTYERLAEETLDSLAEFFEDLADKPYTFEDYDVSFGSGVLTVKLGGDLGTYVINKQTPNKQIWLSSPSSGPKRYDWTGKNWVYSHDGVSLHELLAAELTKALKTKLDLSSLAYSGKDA

Substance: Ab-3, mouse monoclonal [18A5DB1] to Frataxin (Abcam ab110328) (antibody)
- Ave AEB [1]: 5.18 AEB
- S/B [1]: 482
- Ave AEB [2]: 0.737 AEB
- S/B [2]: 7.72
- Ave AEB [3]: 0.395 AEB
- S/B [3]: 21.9
- Ave AEB [4]: 17.4 AEB
- S/B [4]: 352
- Ave AEB [5]: 0.194 AEB
- S/B [5]: 10.6
- Ave AEB [6]: 2.47 AEB
- S/B [6]: 50
- Estimated LLOQ [7]: 1.16 pg/mL
- LOD [7]: 0.551 pg/mL
- AEB rep1 [8]: 0.0165 AEB
- AEB rep2 [8]: 0.0248 AEB
- AEB rep3 [8]: 0.0202 AEB
- Ave AEB [8]: 0.0205 AEB
- S/B [8]: 2.48
- Ave AEB [9]: 0.123 AEB
- S/B [9]: 11.2
- Ave AEB [10]: 0.0854 AEB
- S/B [10]: 18.1
- Ave AEB [11]: 0.156 AEB
- S/B [11]: 8.62
- Ave AEB [12]: 1.98 AEB
- S/B [12]: 19.1
- Ave AEB [13]: 1.27 AEB
- S/B [13]: 70.5
- Ave AEB [14]: 7.14 AEB
- S/B [14]: 88.6
- Ave AEB [15]: 37.3 AEB
- S/B [15]: 462
- LOD [16]: 0.759 pg/mL
